Test results: patent US20090137485A1, “Antigens Targeted by Pathogenic T Cells in Type 1 Diabetes and Uses Thereof” (priority 2005, published 2009)

Assays:
HLA-A2 molecule = HLA-A2 molecule (Homo sapiens, UniProt P04439, D140Y/D185E/D98H/E176V/E277Q/G131W/G231S/I119V/I121R/I166T/I218V/L300P/L318F/N151K/N90K/P208A/P217A/Q86G/Q94H/R138H/R169H/T345S); settings: from the literature (Panagiotopoulos et al., 2003; Regner et al., 1996); cited from earlier work
[1] = molecular target: T1, human HLA-A2 MHC class I molecule (HLA-A*0201) on T2 cells (human); experiment: descriptor in the legend of an IFN-gamma ELISPOT figure (T2 cells as APC)
T1 construct: Surface HLA-A2 was read with FITC anti-HLA-A2 mAb BB7.2; also called HLA-A2.1

[2] = molecular target: T1, human HLA-A2 MHC class I molecule …; experiment: peptide library screen; HLA-A2 restriction on T2 cells

binding result [1] | Molecule | further results
– | KLQVFLIVL [PreproIAPP5-13] | binding to HLA-A2 (HLA-A2 molecule): HLA-A2-binding
binds | VLFGLGFAI (also called murine IGRP 265-273) [mIGRP265-273 (VLFGLGFAI)] | –
– | FGIDLLWSV (also called murine IGRP 228-236) [mIGRP228-236 (FGIDLLWSV)] | binding result [2]: binds
binds | ALIPYCVHM (also called murine IGRP 337-345) [mIGRP337-345 (ALIPYCVHM)] | –
